Stoichiometry N data for one substance are collected here from article PMC12210187.

The stoichiometry N is a count of units in the complex or per binding partner.

The target in the assay is Stenotrophomonas maltophilia EntB (Stenotrophomonas maltophilia K279a). The assay is described as follows: SEC; analytical size-exclusion chromatography; estimated molecular weight 61.8 kDa.

As to “Stenotrophomonas maltophilia EntB (enzyme)”, the stoichiometry N is 2.
